This is an account of results in patent US20260008839A1 (BRIGHAM AND WOMEN S HOSPITAL, published 2026).

Experiment [1] addresses Dll4. Nature of the experiment: flow cytometry: recombinant NOTCH1-Fc + PE anti-IgG Fc on DLL4-expressing Cf2Th cells pre-treated with control IgG; gate PE+.
Experiment [2] has as its target Dll4. Nature of the experiment: flow cytometry: recombinant NOTCH1-Fc + PE anti-IgG Fc on DLL4-expressing Cf2Th cells pre-treated with control IgG.
The target of experiment [3] is Dll4. The experiment can be described thus: flow cytometry: recombinant NOTCH1-Fc + PE anti-IgG Fc on DLL4-expressing HEK293T cells pre-treated with control IgG; gate PE+.
Experiment [4] addresses T1, human DLL4 (human, UniProt Q9NR61 27-529, limits assumed).
T1 construct: also called Hu.DLL4; HuDLL4
The experiment can be described thus: SPR Biacore 3000, antibody captured on anti-rat Fc (90 RU), full kinetics, analyte 0-25 nM. The procedure: (§1) Binding experiments were performed on Biacore 3000 at 25° C. Flow cell 2, 3 and 4 of the CM5 chip were coated with the goat anti-rat Fc Capture Ab using EDC/NHS the amine coupling method as per GE manufacturer's instruction. The unoccupied sites were blocked with 1M ethanolamine. Three test antibodies were captured at an RU as indicated on flow cell 2, 3 and 4. Ag was flowed over the chip. Binding of antigen to the antibodies was monitored in real time. From the observed kₒₙ and koff, KD was determined. For the interactions with fast off rate, steady state kinetics was used to determine KD.

Experiment [5] deals with T2, porcine DLL4 (porcine, UniProt A0A4X1URL1 27-529).
T2 construct: Construct not described (pig DLL4 ECD is named only for hybridoma screening); also called pig DLL4; porcine DDL4
Nature of the experiment: SPR Biacore 3000, antibody captured on anti-rat Fc (80 RU), full kinetics, analyte 0-50 nM. The procedure: as §1

For experiment [6], the target named is T1, human DLL4. The experiment can be described thus: head of the antibody's table; summary bound, assay and unit not named there.
The target in experiment [7] is T1, human DLL4. The experiment can be described thus: SPR Biacore 3000, antibody captured on anti-rat Fc (170 RU), scouting at 100 nM analyte. The procedure:
as §1
(§2) Scouting analysis was performed using a single analyte concentration of 100 nM. At this concentration, binding should be observed even if the ligand binding affinity is weak. Flow cell 1 response was used for reference subtraction.

Experiment [8] has as its target T1, human DLL4. Nature of the experiment: SPR Biacore 3000, full kinetics, against 8D2 as reference. As for the experimental part:
as §1

Experiment [9] concerns the target T3, human DLL1 (human, UniProt O00548 18-545, limits assumed).
T3 construct: Construct not described; also called Hu.DLL1
T3 sequence (looked up): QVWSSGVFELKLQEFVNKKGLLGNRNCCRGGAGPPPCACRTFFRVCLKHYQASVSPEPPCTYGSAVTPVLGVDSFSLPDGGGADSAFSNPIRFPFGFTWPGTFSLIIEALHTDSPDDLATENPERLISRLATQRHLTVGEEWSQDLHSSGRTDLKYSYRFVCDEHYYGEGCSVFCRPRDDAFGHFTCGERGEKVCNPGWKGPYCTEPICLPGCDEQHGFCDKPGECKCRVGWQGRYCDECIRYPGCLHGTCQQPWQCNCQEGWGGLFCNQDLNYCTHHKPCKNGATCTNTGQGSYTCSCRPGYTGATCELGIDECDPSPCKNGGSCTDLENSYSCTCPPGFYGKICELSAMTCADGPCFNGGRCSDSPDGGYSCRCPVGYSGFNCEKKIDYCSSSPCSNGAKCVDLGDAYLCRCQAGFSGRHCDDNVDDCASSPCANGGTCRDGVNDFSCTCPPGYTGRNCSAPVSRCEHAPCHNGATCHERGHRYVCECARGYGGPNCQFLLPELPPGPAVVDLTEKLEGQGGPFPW
Nature of the experiment: head of the antibody's table; assay not named.

In experiment [10] the target is T2, porcine DLL4. The experiment can be described thus: SPR Biacore 3000, antibody captured on anti-rat Fc (80 RU), scouting at 20 nM and 100 nM analyte. The procedure: as §1
The target of experiment [11] is T2, porcine DLL4. The experiment can be described thus: SPR Biacore 3000, antibody captured on anti-rat Fc (110 RU), full kinetics, analyte 0-50 nM. As for the experimental part:
as §1

The target of experiment [12] is T1, human DLL4. The experiment can be described thus: SPR Biacore 3000, antibody captured on anti-rat Fc (220 RU), scouting at 100 nM analyte. The procedure: as §1, §2
In experiment [13] the target is T3, human DLL1. Nature of the experiment: SPR Biacore 3000, antibody captured on anti-rat Fc (220 RU), scouting. The procedure: as §1, §2
Experiment [14] concerns the target T1, human DLL4. Nature of the experiment: SPR Biacore 3000, antibody captured on anti-rat Fc (140 RU), full kinetics, analyte 0-12.5 nM. As for the experimental part:
as §1

Experiment [15] concerns the target T1, human DLL4. The experiment can be described thus: SPR Biacore 3000, antibody captured on anti-rat Fc (161 RU), scouting at 100 nM analyte. The procedure: as §1, §2
Experiment [16] deals with T2, porcine DLL4. Nature of the experiment: SPR Biacore 3000, antibody captured on anti-rat Fc (130 RU), full kinetics, analyte 0-200 nM. As for the experimental part: as §1
Experiment [17] addresses T3, human DLL1. Nature of the experiment: SPR Biacore 3000, antibody captured on anti-rat Fc (161 RU), scouting. The procedure:
as §1, §2

The target of experiment [18] is T2, porcine DLL4. Nature of the experiment: SPR Biacore 3000, antibody captured on anti-rat Fc (75 RU), scouting at 20 nM and 100 nM analyte.

Chain of Dll4 (chain, as listed by the source limits assumed): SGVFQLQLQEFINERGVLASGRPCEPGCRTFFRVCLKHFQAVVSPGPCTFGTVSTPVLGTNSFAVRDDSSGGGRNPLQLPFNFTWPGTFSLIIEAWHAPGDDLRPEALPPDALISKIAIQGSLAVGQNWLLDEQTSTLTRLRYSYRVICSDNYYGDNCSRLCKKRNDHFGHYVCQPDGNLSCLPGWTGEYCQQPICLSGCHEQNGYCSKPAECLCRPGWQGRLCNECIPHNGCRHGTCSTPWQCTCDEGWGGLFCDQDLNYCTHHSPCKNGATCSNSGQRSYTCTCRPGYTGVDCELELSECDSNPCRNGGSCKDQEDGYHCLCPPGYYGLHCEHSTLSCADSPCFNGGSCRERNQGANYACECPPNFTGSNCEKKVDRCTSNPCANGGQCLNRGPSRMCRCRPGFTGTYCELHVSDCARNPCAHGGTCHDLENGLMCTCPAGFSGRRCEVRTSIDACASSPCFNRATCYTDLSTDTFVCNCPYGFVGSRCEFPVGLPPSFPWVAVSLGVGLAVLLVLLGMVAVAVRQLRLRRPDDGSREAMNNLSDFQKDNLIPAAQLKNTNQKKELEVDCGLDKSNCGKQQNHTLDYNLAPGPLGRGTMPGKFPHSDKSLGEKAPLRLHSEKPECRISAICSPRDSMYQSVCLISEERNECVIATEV
T1 sequence (Q9NR61 27-529 limits assumed): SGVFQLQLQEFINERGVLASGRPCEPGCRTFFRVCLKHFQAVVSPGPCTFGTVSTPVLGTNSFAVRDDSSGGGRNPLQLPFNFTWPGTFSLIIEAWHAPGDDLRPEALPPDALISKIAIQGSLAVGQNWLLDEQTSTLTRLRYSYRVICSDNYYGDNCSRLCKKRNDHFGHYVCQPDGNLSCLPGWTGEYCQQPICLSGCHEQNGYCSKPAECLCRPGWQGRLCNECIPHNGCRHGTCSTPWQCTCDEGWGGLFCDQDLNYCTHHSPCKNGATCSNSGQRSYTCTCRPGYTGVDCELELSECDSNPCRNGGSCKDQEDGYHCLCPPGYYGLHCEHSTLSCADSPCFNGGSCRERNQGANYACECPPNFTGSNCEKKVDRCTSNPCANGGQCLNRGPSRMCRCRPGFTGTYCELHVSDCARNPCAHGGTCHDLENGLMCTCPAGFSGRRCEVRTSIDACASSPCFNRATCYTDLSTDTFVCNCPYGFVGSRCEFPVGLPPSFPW
T2 sequence (A0A4X1URL1 entry or part of it): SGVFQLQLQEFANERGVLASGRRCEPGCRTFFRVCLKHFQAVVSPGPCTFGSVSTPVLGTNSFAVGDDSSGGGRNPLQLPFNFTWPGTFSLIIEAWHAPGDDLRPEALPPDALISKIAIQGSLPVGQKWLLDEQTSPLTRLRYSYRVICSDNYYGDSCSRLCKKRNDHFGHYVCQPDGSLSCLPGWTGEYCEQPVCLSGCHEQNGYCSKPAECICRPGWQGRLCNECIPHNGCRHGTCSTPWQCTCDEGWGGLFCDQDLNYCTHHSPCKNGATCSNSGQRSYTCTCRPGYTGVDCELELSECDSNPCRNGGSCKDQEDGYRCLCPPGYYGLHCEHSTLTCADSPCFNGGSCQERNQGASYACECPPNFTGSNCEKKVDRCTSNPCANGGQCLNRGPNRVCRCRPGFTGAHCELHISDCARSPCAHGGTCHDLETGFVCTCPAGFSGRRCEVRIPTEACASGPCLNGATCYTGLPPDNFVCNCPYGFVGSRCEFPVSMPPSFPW

On to NOTCH1-Fc (Fc fusion), for which the PE positive cells (%) in experiment [1] is 11%; in experiment [2], 16.8%; in [3], 9.6%.

B1: Monoclonal Antibody 8C2 (antibody, V domains shown)
VH: QVQLKESGPGLVQPSQTLSLTCTVSGISISIYGVSWVRQPPGKGLEWMGGIWGDGSTDYNSALKSRLSLSRDTSKSQVFLKMNSLQTEDTAIYFCTLSGDFDYWGHGVLVTVSS
VL: DIQLTQSPASLSASLDEIVTITCQASLDIGNWLAWYQQKTGKSPQLLIYGATSLAGGVPSRFSGSRSGTQYSLKISKLQVEDTGIYYCLQHYRAPFTFGSGTKLEI
notes: Rat hybridoma monoclonal antibody, IgG type (captured by goat anti-rat Fc); also called BMH-8C2-D10; BMH-8C2-D4
B1: the dissociation constant Kd in experiment [4] turned out to be 0.343 nM; in experiment [5] it was 7.07 nM; in experiment [7] it was 3.68 nM; in [10], 15.4 nM. Also, the koff in [4] worked out at 0.000439 s⁻¹; in [5], 0.00198 s⁻¹; in [7], 0.000505 s⁻¹; in experiment [10] it was 0.00162 s⁻¹. Moreover, the kon in experiment [4] is 1.28e+06 M⁻¹ s⁻¹; in experiment [5] it was 281000 M⁻¹ s⁻¹; in experiment [6], more than 500000 M⁻¹ s⁻¹; in experiment [7], 137000 M⁻¹ s⁻¹; in experiment [10], 106000 M⁻¹ s⁻¹. Further, in experiment [8], the “fold higher affinity than 8D2” value was approximately 10 fold. For the same molecule, the “fold lower off rate than 8D2” value in experiment [8] was 4 fold. In addition, the binding result in experiment [9] is “no binding”.

B2: Monoclonal Antibody 8D2 (antibody, V domains shown)
VH: SGGGLVQPGRSMKLSCAASGFTFSNYDMAWVRQDPKKGLEWVATISYDGRSTYYRDSVKGRFTISRDNAKSTLYLQMDSLRSEDTATYYCKDYDGHYHPYGMEAWGQGISVTVSS
VL: DIVLTQSPALAVTLGQRATISCRASQSVTISNYNLMQWYQQRPGRQPKLLIYDASNLASGIPARFSGSGSGTDFTLTIDPVQADDIATYYCQQSRDDPRTFGGGTKLELR
notes: Rat hybridoma monoclonal antibody, IgG type (captured by goat anti-rat Fc); also called BMH-8D2-D10; rat 8D2
B2: the Kd in [11] came out at 7.21 nM; in experiment [12], 2.27 nM; in experiment [14] it was 2.12 nM; in [10] it was 9.95 nM. Also, the koff was 0.00182 s⁻¹ in experiment [11], 0.00108 s⁻¹ in [12], 0.00161 s⁻¹ in experiment [14] and 0.00171 s⁻¹ in experiment [10]. Besides, the kon came to 253000 M⁻¹ s⁻¹ in experiment [11], 474000 M⁻¹ s⁻¹ in [12], 759000 M⁻¹ s⁻¹ in experiment [14] and 172000 M⁻¹ s⁻¹ in experiment [10]. Also, the binding result in experiment [13] was “no binding (tested: 100 nM)”.

B3: Monoclonal Antibody 2H10 (antibody, V domains shown)
VH: QVQVKESGPGLVQPSQTLSLTCIVSGFSLSSYHVSWVRQPPGKSLVWMGTIWAGGGTNYNSAVQSRLSISRDTSKSQVFLKVNSLQPEDTGTYYCARHYYDGYYHGPYFDYWGQGVMVTV
VL: SPASLSASLGETVTFECRASEDIYTNLAWYQQKPGNSPQLLIYDANTLADGVPSRFSGSGSGTQFSLKINSLQSEDVASYFCQQYDSYPWTFGGGTKLELRR
notes: Rat hybridoma monoclonal antibody, IgG type (captured by goat anti-rat Fc); also called BMH-2H10-A7
In the case of B3, the Kd in experiment [15] is 88.6 nM; in experiment [16], 9.37 µM; in experiment [18], 1240 nM. The koff in experiment [15] amounted to 0.00109 s⁻¹; in experiment [16] it was 0.00276 s⁻¹; in [18] it was 0.00345 s⁻¹. Besides, the on-rate constant (kon) turned out to be 12400 M⁻¹ s⁻¹ in [15], 295 M⁻¹ s⁻¹ in [16] and 2790 M⁻¹ s⁻¹ in [18]. Moreover, the binding result in experiment [17] is recorded as “no binding (tested: 100 nM)”.
